Reference: the supplement of paper PMC7125110
± gives the standard error. For some of these results: This sample holds only a part of the variants without activity.

B1: glmS ribozyme (parent)
chain: AUAAAAGCGCCAGAACUACAGAAAUGUAGUUGACGAGGAGGAGGUUUAUCGAAUUUUCGGCGGAUGCCUCCAAA

Experiments:
Conditions in all cases: with glucosamine-6-phosphate
glucosamine-6-phosphate [1] = variants of: B1; experiment: kcat; higher = faster cleavage; RNA array
In short: (§1)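 Ribozyme variants carrying barcodes were transcribed in situ on sequenced MiSeq chips by E. coli RNA polymerase and tracked at 37 °C with a hybridised Cy3 probe. They were exposed to 40 μM to 10 mM glucosamine-6-phosphate in HEPES/KCl/Mg(OAc)2 buffer. kobs came from exponential decay fits of normalised per-tile medians, and kcat and KM from weighted Michaelis–Menten fits.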

glucosamine-6-phosphate [2] = variants of: B1; experiment: self-cleavage kobs at 40 uM GlcN6P; higher = faster cleavage; RNA array
In short: as §1

glucosamine-6-phosphate [3] = variants of: B1; experiment: self-cleavage kobs at 640 uM GlcN6P; higher = faster cleavage; RNA array
In short: as §1

glucosamine-6-phosphate [4] = variants of: B1; experiment: self-cleavage kobs at 160 uM GlcN6P; higher = faster cleavage; RNA array
In short: as §1

glucosamine-6-phosphate [5] = variants of: B1; experiment: self-cleavage kobs at 10000 uM GlcN6P; higher = faster cleavage; RNA array
In short: as §1

glucosamine-6-phosphate [6] = variants of: B1; experiment: KM; higher = weaker cofactor use; RNA array
In short: as §1

glucosamine-6-phosphate [7] = variants of: B1; experiment: self-cleavage kobs at 2500 uM GlcN6P; higher = faster cleavage; RNA array
In short: as §1

Row | Variant | kcat (glucosamine-6-phosphate [1]) [s⁻¹] | self-cleavage kobs at 40 uM GlcN6P (glucosamine-6-phosphate [2]) [s⁻¹] | self-cleavage kobs at 640 uM GlcN6P (glucosamine-6-phosphate [3]) [s⁻¹] | self-cleavage kobs at 160 uM GlcN6P (glucosamine-6-phosphate [4]) [s⁻¹] | self-cleavage kobs at 10000 uM GlcN6P (glucosamine-6-phosphate [5]) [s⁻¹] | KM (glucosamine-6-phosphate [6]) [µM] | self-cleavage kobs at 2500 uM GlcN6P (glucosamine-6-phosphate [7]) [s⁻¹]
1 | AUAAACGCGCCAGAACUACAGAAAUGUAGUUGACGAGGAGGAGGUUUAUCGAAUUUUCGGCGGAUGCGUCCAAA | < 1e-05 | < 1e-05 | < 1e-05 |  |  |  | 
2 | AUAAAUGCGCCAGAACUACAGAAAUGUAGUUGACGAGGAGGAGGUUUAUCGAAUUUUCGCCGGAUGACUCCAAA | < 1e-05 |  | < 1e-05 | < 1e-05 | < 1e-05 |  | 
3 | AUAAAAGCGCCAUAACUACAGAAAUGUAGUUGACGAGGAGGAGGUUUAUCGAAAUUUCGGCGGAUGCCUCCAAA | 0.00184 ± 0.00033 | 4.3e-05 ± 9.5e-06 | 0.000283 ± 5.5e-05 | 0.000103 ± 1.6e-05 | 0.00144 ± 0.00015 | 2690 ± 770 | 0.00105 ± 0.00017
4 | AUAAACGCGCCAGAACUACAGAAAUGUAAUUGACGAGGAGGAGGUUUAUCGAAUUUUCGGCGGAUGCCUCCAAA | < 1e-05 | < 1e-05 |  |  |  |  | 
5 | AUAAAAGCGCCAGAACUACAGAAAUGUAGUUGACGAGGAGGAGGUUUAUCGACUUUACGGCGGAUGCCACCAAA | 1.88e-05 ± 5.8e-06 |  |  |  |  |  | 
6 | AUAAAAGCGCCAGAACUACAGAAAUGUAGAUGACGGGGAGGAGGUUUAUCGAAUUUUCGGCGGAUGCCUCCAAA | < 1e-05 | < 1e-05 | < 1e-05 |  |  |  | 
7 | AUAAAUACGCCAGAACUACAGAAAUGUAGUUGACGAGGAGGAGGUUUAUCGAAUUUUCGGCGGAUGCCUCCAAA | < 1e-05 |  | < 1e-05 | < 1e-05 |  |  | 
8 | AUAAAAGCGCCAGAACUACAGAAAUGUAGUUGACGAGGAAGAGGUUUAUCGAAUUUUCGGCGGAGGCCUCCAAA | 0.00247 ± 0.00015 | 3.72e-05 ± 1.4e-05 | 0.000421 ± 0.0001 |  | 0.00192 ± 0.00028 | 2990 ± 340 | 0.00107 ± 0.00028
9 | AUAAAAGCGCCAGAACUACAGAAAUGUAGUUGACGAGGAGGAGGUUUAUCGAAUUUUCGGCGGAUUACUCCAAA | 0.00338 ± 0.00094 | 5.28e-05 ± 1.5e-05 | 0.0005 ± 9.9e-05 | 0.000188 ± 5.8e-05 | 0.00241 ± 0.00063 | 3020 ± 1100 | 0.00197 ± 0.00041
10 | AUAAAAGCGCCAGGACUACAGAAAUGUACUUGACGAGGAGGAGGUUUAUCGAAUUAUCGGCGGAUGCCUCCAAA | 0.00138 ± 0.00036 | 3.76e-05 ± 1.8e-05 | 0.000364 ± 8.4e-05 |  | 0.00136 ± 0.00029 | 1960 ± 970 | 0.000647 ± 0.00014
11 | AUAAAAGCGCCAGAACUACAGAAAUGUAGUUGACGAGAAGGAGGUUUAUCGAAUUAUCGGCGGAUGCCUCCAAA | < 1e-05 |  | < 1e-05 |  | < 1e-05 | 52.5 ± 11 | 
12 | AUAAAAGCGCCAGCACUACAGAAAUGUAGAUGACGAGGAGGAGGUUUAUCGAAUUUUCGGCGGAUGCCUCCAAA | 0.00104 ± 0.00011 |  | 0.000182 ± 3.9e-05 | 6.84e-05 ± 2e-05 | 0.000813 ± 0.00013 | 2710 ± 480 | 0.000568 ± 0.00017
13 | AUAAAAGCGCCAGAUCUACAGAAAUGUAGUUGACGAGGAGGAGGUUUAUCGAAUUUUCGGCGGAUGCCUCGAAA | 0.000329 ± 9.4e-05 |  | 9.25e-05 ± 9.6e-06 | 4.2e-05 ± 8.4e-06 | 0.000359 ± 4.3e-05 |  | 0.000157 ± 2.3e-05
14 | AUAAAAGCGGCAGAACUACAGAAAUGUAGUUCACGAGGAGGAGGUUUAUCGAAUUUUCGGCGGAUGCCUCCAAA | < 1e-05 |  | < 1e-05 | < 1e-05 |  |  | 
15 | AUAAAAGCGCCAGAACUACAGAAAUGUAGUUGACGAGGAGGAGCUUUAUCGAAGUUUCGGCGGAUGCCUCCAAA | 0.000124 ± 1.2e-05 |  | 4.75e-05 ± 1.2e-05 |  | 0.000118 ± 1.9e-05 | 1200 ± 330 | 7.38e-05 ± 1.6e-05
16 | AUAAAAGCGCCAGAACUACAGAAAUGUAGAUGACGAGGAGGAGGUUUAUCGAACUUUCGGCGGAUGCCUCCAAA | 0.00409 ± 0.0013 | 0.000151 ± 2.1e-05 | 0.00174 ± 0.00027 |  | 0.00543 ± 0.001 | 1040 ± 490 | 0.00215 ± 0.00045
17 | AUAAAAGCGCCAGAACUACAGAAAUGUAGUUGACGAGGAGGAGGUUUACCGAAUUUUCGGCGGAUGCCGCCAAA | 1.6e-05 ± 5e-06 |  |  |  |  |  | 
18 | AUAAAAGCGCAAGAUCUACAGAAAUGUAGUUGACGAGGAGGAGGUUUAUCGAAUUUUCGGCGGAUGCCUCCAAA | 6.57e-05 ± 4.8e-06 |  |  |  | 5.85e-05 ± 1.7e-05 | 1510 ± 380 | 3.75e-05 ± 1.7e-05
